Laboratory results from the supplement of paper PMC7877785.
± gives the uncertainty stated by the source.

Assay: self-splicing fitness, log relative to wild type (ln ratio); higher = more splicing; Tetrahymena group I intron in knt gene, E. coli kanamycin selection, DiMSum; sequences stand for … in CUCUCU…GGAGGGAAAAGUUAUCAGGCAUGCACCUGGUAGCUAGUCUUUAAACCAAUAGAUUGCAUCGGUUUAAAAGGCAAGACCGUCAAAUUGCGGGAAAGGGGUCAACAGCCGUUCAGUACCAAGUCUCAGGGGAAACUUUGAGAUGGCCUUGCAAAGGGUAUGGUAAUAAGCUGACGGACAUGGUCCUAACCACGCAGCCAAGUCCUAAGUCAACAGAUCUUCUGUUGAUAUGGAUGCAGUUCACAGACUAAAUGUCGGUCGGGGAAGAUGUAUUCUUCUCAUAAGAUAUAGUCGGACCUCUCCUUAAUGGGAGCUAGCGGAUGAAGUGAUGCAACACUGGAGCCGCUGGGAACUAAUUUGUAUGCGAAAGUAUAUUGAUUAGUUUUGGAGUACUCGUGGUCG
In short: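 A randomised library covering all eight P1ex-region intron nucleotides was built with the intron in the knt kanamycin-resistance gene on pET-22b(+) and held in E. coli BL21(DE3). Cells were grown overnight at 37°C or 30°C on LB agar, with or without 25 μg/mL kanamycin, plus 100 μg/mL carbenicillin, 50 μM IPTG and 0.2% rhamnose, and pooled colonies were amplicon-sequenced on an Illumina HiSeq 2500. DiMSum fitness is the error-weighted combination of wild-type-normalised replicate fold changes, kanamycin versus none.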

| Sequence | self-splicing fitness (ln) (30 °C) | self-splicing fitness (ln) (37 °C) |
| --- | --- | --- |
| GCUCAGCAAUAUUACGCGGA | -2.01 ± 0.26 | -2.63 ± 0.28 |
| GCUCAGCAAUAUUACGCUCA | -1.59 ± 0.11 | -0.171 ± 0.11 |
| GCUCAGCAAUAUUACGGAUA | -1.34 ± 0.12 | -0.254 ± 0.1 |
| GCUCAGCAAUAUUACGGAUG | -1.76 ± 0.094 | -1.12 ± 0.12 |
| GCUCAGCAAUAUUACGGCGG | -3.09 ± 0.29 | -1.46 ± 0.29 |
| GCUCAGCAAUAUUACGUAGG | 0.139 ± 0.052 | 0.32 ± 0.076 |
| GCUCAGCAAUAUUACGUCCG | -1.49 ± 0.14 | -1.13 ± 0.18 |
| GCUCAGCAAUAUUACGUCCU | -1.16 ± 0.11 | -0.818 ± 0.14 |
| GCUCAGCAAUAUUACGUGAA | -0.113 ± 0.063 | 0.231 ± 0.077 |
| GCUCAGCAAUAUUACGUGAU | -0.424 ± 0.072 | -0.373 ± 0.078 |
| GCUCAGCAAUAUUACGUUGA | -3.15 ± 0.18 | -2.42 ± 0.2 |
| GCUGAGCAAUAUUACGACUU | -1.64 ± 0.14 | 0.471 ± 0.14 |
| GCUGAGCAAUAUUACGAGAC | -3.06 ± 0.36 | 0.142 ± 0.23 |
| GCUGAGCAAUAUUACGAUCU | -1.69 ± 0.094 | -1.05 ± 0.1 |
| GCUGAGCAAUAUUACGAUGG | -2.25 ± 0.17 | -0.805 ± 0.12 |
| GCUGAGCAAUAUUACGAUGU | -2.49 ± 0.1 | -0.739 ± 0.12 |
| GCUGAGCAAUAUUACGAUUG | -4.26 ± 0.32 | -3.02 ± 0.22 |
| GCUGAGCAAUAUUACGCCGG | -1.99 ± 0.36 | – |
| GCUGAGCAAUAUUACGCCUU | -1.98 ± 0.31 | -1.48 ± 0.44 |
| GCUGAGCAAUAUUACGCGCG | -0.818 ± 0.16 | -0.503 ± 0.19 |
| GCUGAGCAAUAUUACGCGCU | -3.05 ± 0.31 | -1.53 ± 0.36 |
| GCUGAGCAAUAUUACGCUCA | – | -2.75 ± 0.48 |
| GCUGAGCAAUAUUACGCUUG | -3.25 ± 0.29 | -1.57 ± 0.29 |
| GCUGAGCAAUAUUACGGAAG | -2.41 ± 0.24 | -0.395 ± 0.17 |
| GCUGAGCAAUAUUACGGAGC | -3.49 ± 0.18 | -1.7 ± 0.16 |

| Sequence | self-splicing fitness (ln) (30 °C) | self-splicing fitness (ln) (37 °C) |
| --- | --- | --- |
| GCUGAGCAAUAUUACGGAGG | -3.67 ± 0.38 | -1.14 ± 0.38 |
| GCUGAGCAAUAUUACGGCUA | -2.46 ± 0.19 | -1.66 ± 0.19 |
| GCUGAGCAAUAUUACGGGGU | – | -2.36 ± 0.28 |
| GCUGAGCAAUAUUACGGUGA | -1.35 ± 0.17 | -0.217 ± 0.17 |
| GCUGAGCAAUAUUACGUCGU | -2.05 ± 0.097 | -1.52 ± 0.12 |
| GCUGAGCAAUAUUACGUGCC | -3.37 ± 0.34 | – |
| GCUGAGCAAUAUUACGUUAU | -2.96 ± 0.25 | -2.33 ± 0.28 |
| GCUGAGCAAUAUUACGUUGA | -2.57 ± 0.22 | -2.61 ± 0.22 |
| GCUUAGCAAUAUUACGACAA | -1.02 ± 0.14 | -0.462 ± 0.19 |
| GCUUAGCAAUAUUACGACGC | -0.0232 ± 0.13 | -0.351 ± 0.16 |
| GCUUAGCAAUAUUACGAGCA | -2.24 ± 0.14 | -0.963 ± 0.13 |
| GCUUAGCAAUAUUACGAGGG | -1.83 ± 0.11 | -1.36 ± 0.11 |
| GCUUAGCAAUAUUACGCAUC | -1.04 ± 0.069 | -0.56 ± 0.091 |
| GCUUAGCAAUAUUACGCAUU | -0.542 ± 0.095 | -0.78 ± 0.12 |
| GCUUAGCAAUAUUACGCCGA | -2.42 ± 0.23 | -1.87 ± 0.27 |
| GCUUAGCAAUAUUACGCGCC | -1.62 ± 0.45 | – |
| GCUUAGCAAUAUUACGCUGC | -3.09 ± 0.35 | -2.38 ± 0.42 |
| GCUUAGCAAUAUUACGGCGC | -0.263 ± 0.14 | 0.127 ± 0.16 |
| GCUUAGCAAUAUUACGGUCA | -1.04 ± 0.13 | -0.448 ± 0.14 |
| GCUUAGCAAUAUUACGGUGC | -1.98 ± 0.12 | -0.681 ± 0.15 |
| GCUUAGCAAUAUUACGGUGU | -0.596 ± 0.052 | -0.0556 ± 0.068 |
| GCUUAGCAAUAUUACGUCGA | -1.67 ± 0.088 | -0.777 ± 0.11 |
| GCUUAGCAAUAUUACGUCUA | -1.96 ± 0.26 | -0.873 ± 0.2 |
| GCUUAGCAAUAUUACGUGGC | -3.12 ± 0.22 | -1.44 ± 0.4 |
| GGAAAGCAAUAUUACGAAAA | -1.04 ± 0.48 | – |

| Sequence | self-splicing fitness (ln) (30 °C) | self-splicing fitness (ln) (37 °C) |
| --- | --- | --- |
| GGAAAGCAAUAUUACGAAGC | -1.07 ± 0.34 | -1.43 ± 0.34 |
| GGAAAGCAAUAUUACGACCA | -0.87 ± 0.11 | -0.318 ± 0.14 |
| GGAAAGCAAUAUUACGACGU | -0.135 ± 0.097 | 0.068 ± 0.1 |
| GGAAAGCAAUAUUACGAGCG | -0.482 ± 0.12 | 0.397 ± 0.12 |
| GGAAAGCAAUAUUACGAUUA | -0.527 ± 0.16 | 0.788 ± 0.16 |
| GGAAAGCAAUAUUACGCCGA | -0.608 ± 0.34 | -0.354 ± 0.24 |
| GGAAAGCAAUAUUACGCGAA | -1.66 ± 0.17 | -1.19 ± 0.13 |
| GGAAAGCAAUAUUACGCGGC | -2.98 ± 0.41 | -2.03 ± 0.45 |
| GGAAAGCAAUAUUACGCUGA | -2.94 ± 0.22 | -1.9 ± 0.16 |
| GGAAAGCAAUAUUACGCUGG | -2.2 ± 0.14 | -2.81 ± 0.26 |
| GGAAAGCAAUAUUACGCUUG | -2.12 ± 0.14 | -1.15 ± 0.21 |
| GGAAAGCAAUAUUACGGAUC | -0.0161 ± 0.075 | 0.0803 ± 0.09 |
| GGAAAGCAAUAUUACGGCCG | -0.751 ± 0.12 | -0.566 ± 0.16 |
| GGAAAGCAAUAUUACGGGAG | -3.54 ± 0.28 | -1.83 ± 0.19 |
| GGAAAGCAAUAUUACGGGCA | -1.2 ± 0.14 | -1.15 ± 0.18 |
| GGAAAGCAAUAUUACGGGUC | -3.66 ± 0.24 | -1.92 ± 0.14 |
| GGAAAGCAAUAUUACGGUAG | -3.02 ± 0.2 | -2.98 ± 0.18 |
| GGAAAGCAAUAUUACGGUCC | -2.06 ± 0.25 | – |
| GGAAAGCAAUAUUACGUACA | -0.523 ± 0.14 | 6.9e-05 ± 0.15 |
| GGAAAGCAAUAUUACGUCAC | -2.13 ± 0.22 | -1.81 ± 0.32 |
| GGAAAGCAAUAUUACGUCGA | -1.84 ± 0.092 | -0.528 ± 0.12 |
| GGAAAGCAAUAUUACGUGAC | -2.97 ± 0.19 | -1.94 ± 0.24 |
| GGAAAGCAAUAUUACGUUAG | -3.14 ± 0.16 | -1.9 ± 0.15 |
| GGACAGCAAUAUUACGAAGC | -0.729 ± 0.079 | 0.158 ± 0.097 |
| GGACAGCAAUAUUACGAAGU | -1.34 ± 0.14 | -0.422 ± 0.14 |

| Sequence | self-splicing fitness (ln) (30 °C) | self-splicing fitness (ln) (37 °C) |
| --- | --- | --- |
| GGACAGCAAUAUUACGAAUU | -0.588 ± 0.076 | 0.11 ± 0.11 |
| GGACAGCAAUAUUACGACCG | -0.447 ± 0.16 | -0.054 ± 0.27 |
| GGACAGCAAUAUUACGAGGU | -3.35 ± 0.21 | -2.12 ± 0.14 |
| GGACAGCAAUAUUACGAUAU | -1.67 ± 0.08 | -0.201 ± 0.086 |
| GGACAGCAAUAUUACGAUGA | -1.08 ± 0.15 | -1.65 ± 0.14 |
| GGACAGCAAUAUUACGAUGU | -2.12 ± 0.055 | -0.961 ± 0.057 |
| GGACAGCAAUAUUACGAUUA | -0.666 ± 0.13 | -0.225 ± 0.12 |
| GGACAGCAAUAUUACGCGCA | -0.346 ± 0.061 | 0.497 ± 0.09 |
| GGACAGCAAUAUUACGCGCU | -1.92 ± 0.22 | -1.36 ± 0.34 |
| GGACAGCAAUAUUACGCGUC | -2.69 ± 0.22 | -2.78 ± 0.48 |
| GGACAGCAAUAUUACGCUCA | -0.215 ± 0.12 | -0.136 ± 0.15 |
| GGACAGCAAUAUUACGCUGG | -2.75 ± 0.28 | -2 ± 0.34 |
| GGACAGCAAUAUUACGGAAA | -2.04 ± 0.15 | -1.23 ± 0.14 |
| GGACAGCAAUAUUACGGAUC | -1.3 ± 0.11 | 0.26 ± 0.13 |
| GGACAGCAAUAUUACGGAUU | -1.33 ± 0.066 | 0.0211 ± 0.089 |
| GGACAGCAAUAUUACGGCAG | -3.87 ± 0.14 | -2.45 ± 0.1 |
| GGACAGCAAUAUUACGGCCC | -1.7 ± 0.46 | – |
| GGACAGCAAUAUUACGGCGA | -0.0139 ± 0.1 | -0.0325 ± 0.11 |
| GGACAGCAAUAUUACGGCGU | -0.74 ± 0.097 | -0.627 ± 0.11 |
| GGACAGCAAUAUUACGGCUU | -0.36 ± 0.11 | 0.07 ± 0.11 |
| GGACAGCAAUAUUACGGGGC | -1.63 ± 0.092 | -1.72 ± 0.13 |
| GGACAGCAAUAUUACGGGUU | -3.03 ± 0.11 | -2.46 ± 0.21 |
